Test results: patent US20100055739

System: T1, Bli1904II restriction endonuclease (Bacillus licheniformis)
T1 sequence: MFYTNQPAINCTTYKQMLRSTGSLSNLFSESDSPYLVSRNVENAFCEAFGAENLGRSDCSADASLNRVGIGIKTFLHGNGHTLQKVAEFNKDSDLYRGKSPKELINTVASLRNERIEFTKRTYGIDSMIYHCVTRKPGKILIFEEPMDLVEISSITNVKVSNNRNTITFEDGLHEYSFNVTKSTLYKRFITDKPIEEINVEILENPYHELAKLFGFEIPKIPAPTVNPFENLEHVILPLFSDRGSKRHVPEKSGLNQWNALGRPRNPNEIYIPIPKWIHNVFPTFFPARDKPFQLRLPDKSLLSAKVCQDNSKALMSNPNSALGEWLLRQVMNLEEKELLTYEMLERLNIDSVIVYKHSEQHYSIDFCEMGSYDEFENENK
Test: cell_activity

Substance	activity (transformants per ug DNA) (methylated by M.Bli1904II at GCNGC (C5-cytosine type, position not stated), methylated plasmid not restricted in SJ1904, 7.2e3 in deletion strain MDT269)	activity (transformants per ug DNA) (restriction of unmethylated plasmid in SJ1904, 6.4e3 in Bli1904II deletion strain MDT269, site inferred from cognate methylase)
GCNGC (double strand) [pCJ791 plasmid GCNGC sites, M.Bli1904II-methylated]	16000	
GCNGC (double strand) [pCJ791 plasmid GCNGC sites, unmethylated]		17
